These results are taken from patent publication US7306904.

This experiment has as its target soluble PDGF-alpha receptor (UniProt P16234). The experiment in a line: proximity ligation competition assay in solution: 100 nM PDGF-AA added to 6.4 pM PDGF-BB, 2.5 nM soluble PDGF-alpha receptor and 5 pM aptamer probes; the signal comes from PDGF-BB displaced from the receptor, compared with no PDGF-AA.
Sequence of UniProt P16234 (P16234 24-524 limits assumed): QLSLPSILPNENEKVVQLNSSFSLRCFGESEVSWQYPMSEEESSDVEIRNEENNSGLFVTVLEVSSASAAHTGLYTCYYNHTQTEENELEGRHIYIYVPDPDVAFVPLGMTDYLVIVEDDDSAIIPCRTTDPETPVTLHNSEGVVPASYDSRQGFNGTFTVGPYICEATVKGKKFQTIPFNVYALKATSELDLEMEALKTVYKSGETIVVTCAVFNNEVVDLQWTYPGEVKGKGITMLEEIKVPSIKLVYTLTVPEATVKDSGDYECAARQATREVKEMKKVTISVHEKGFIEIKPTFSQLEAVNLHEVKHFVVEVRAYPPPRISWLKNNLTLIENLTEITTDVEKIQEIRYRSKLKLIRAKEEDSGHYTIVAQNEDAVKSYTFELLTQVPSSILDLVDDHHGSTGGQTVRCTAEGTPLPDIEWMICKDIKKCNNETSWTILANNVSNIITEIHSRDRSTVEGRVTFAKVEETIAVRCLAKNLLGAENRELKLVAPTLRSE

“PDGF-AA (from UniProt P04085 87-211) (ligand)” yielded a fold increase in signal of 3 fold.
